According to IntAct's records for PubMed 10444103:

Tests used:
mad14_orysj MADS14 [1] = target: mad14_orysj MADS14 (UniProt Q10CQ1)
mad14_orysj MADS14 [2] = target: mad14_orysj MADS14 (UniProt Q10CQ1); remark: listed apart in the source

Sequence of mad14_orysj MADS14 (Q10CQ1 whole entry): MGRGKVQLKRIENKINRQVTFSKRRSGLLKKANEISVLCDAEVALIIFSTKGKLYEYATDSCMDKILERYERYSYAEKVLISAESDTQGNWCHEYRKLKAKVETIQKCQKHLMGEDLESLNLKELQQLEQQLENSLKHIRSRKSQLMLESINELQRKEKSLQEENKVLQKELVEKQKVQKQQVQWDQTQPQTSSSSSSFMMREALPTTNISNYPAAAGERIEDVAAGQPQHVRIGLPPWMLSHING
Sequence of MADS-box transcription factor 6 (Oryza sativa subsp. japonica (Rice)), Q6EU39 L126R;L134R (Q6EU39 whole entry L126R/L134R): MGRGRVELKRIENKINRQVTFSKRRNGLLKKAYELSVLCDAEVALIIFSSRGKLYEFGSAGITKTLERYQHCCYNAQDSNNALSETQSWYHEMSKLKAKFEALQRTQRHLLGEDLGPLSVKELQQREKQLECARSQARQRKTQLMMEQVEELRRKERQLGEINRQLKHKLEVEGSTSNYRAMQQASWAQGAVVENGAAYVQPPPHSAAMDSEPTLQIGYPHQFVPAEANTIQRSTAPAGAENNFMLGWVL
Sequence of MADS-box transcription factor 6 (Oryza sativa subsp. japonica (Rice)), Q6EU39 L110R;L118R;L159R;L166R (Q6EU39 whole entry L110R/L118R/L159R/L166R): as the sequence (Q6EU39 whole entry L126R/L134R) above, with L110R, L118R, R126L, R134L, L159R, L166R counted along it
Sequence of MADS-box transcription factor 6 (Oryza sativa subsp. japonica (Rice)), Q6EU39 L110S;L118R (Q6EU39 whole entry L110S/L118R): as the sequence (Q6EU39 whole entry L126R/L134R) above, with L110S, L118R, R126L, R134L counted along it
Sequence of MADS-box transcription factor 6 (Oryza sativa subsp. japonica (Rice)), Q6EU39 L159R;L166R (Q6EU39 whole entry L159R/L166R): as the sequence (Q6EU39 whole entry L126R/L134R) above, with R126L, R134L, L159R, L166R counted along it
Sequence of MADS-box transcription factor 6 (Oryza sativa subsp. japonica (Rice)), Q6EU39 L110R;L118R (Q6EU39 whole entry L110R/L118R): as the sequence (Q6EU39 whole entry L126R/L134R) above, with L110R, L118R, R126L, R134L counted along it

Substance	effect of a mutation on the interaction (mad14_orysj MADS14 [1])	effect of a mutation on the interaction (mad14_orysj MADS14 [2])
MADS-box transcription factor 6 (Oryza sativa subsp. japonica (Rice)), Q6EU39 L110R;L118R	decreasing interaction strength	–
MADS-box transcription factor 6 (Oryza sativa subsp. japonica (Rice)), Q6EU39 L110R;L118R;L159R;L166R	disrupting interaction strength	disrupting interaction strength
MADS-box transcription factor 6 (Oryza sativa subsp. japonica (Rice)), Q6EU39 L110S;L118R	–	decreasing interaction strength
MADS-box transcription factor 6 (Oryza sativa subsp. japonica (Rice)), Q6EU39 L126R;L134R	disrupting interaction strength	disrupting interaction strength
MADS-box transcription factor 6 (Oryza sativa subsp. japonica (Rice)), Q6EU39 L159R;L166R	disrupting interaction strength	–
